B1: MMP1 (parent)
chain: FHGTRQYKFDPKTKRILTLQKANS

Variants of: B1
Assay: protein stability index of a GFP-peptide fusion (GPS, HEK-293T) (PSI 1-6); higher = more stable
Details: c terminus: a fixed tail appended
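Also: lentivirally expressed fusions sorted by FACS into six bins by GFP to DsRed ratio, PSI derived from sequencing read proportions per bin multiplied by bin number.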

Protein stability index of substitutions, site by site:
K8: W 3.37; M 2.63; N 2.71; V 1.74; E 2.21; G 2.24; I 2.49; H 1.76; D 2.07; Y 2.22; A 2.04; C 2.73; Q 1.78; P 1.71; F 2.76; T 2.5; L 1.64; S 2.52; R 2.65
R15: E 1.83; G 1.31; F 1.3; L 2.2; S 1.91; K 1.66; D 1.86; T 1.83; M 1.47; V 1.77; N 1.73; A 2.51; H 1.86; W 1.69; Q 2.16; Y 1.57; C 1.28; I 2.05; P 2.29
K14: S 1.69; R 1.85; N 2.14; Q 1.82; I 1.92; Y 1.36; P 2.1; V 2.53; D 2.19; A 2.68; C 2.18; L 1.99; F 1.98; G 1.54; W 1.95; T 1.61; E 1.85; H 1.54; M 2.16
A22: D 1.48; Q 2.06; P 2.19; G 1.73; H 2.49; T 1.68; I 1.38; N 2.09; E 2.92; L 1.52; W 1.6; C 2.07; S 2.51; R 1.65; Y 2.49; F 1.77; V 1.45; K 1.99; M 1.83
F9: T 1.55; V 1.58; W 2.27; I 1.68; Q 1.6; G 2.24; A 1.74; S 2.08; E 1.76; M 1.67; Y 1.75; N 2.39; P 2.13; C 2.48; H 1.98; R 2.39; D 2.27; K 2.17; L 2.05
I16: D 2.5; Q 1.94; T 1.91; H 1.42; V 2.25; Y 1.35; A 2.8; R 1.36; S 1.7; F 1.64; M 1.64; P 1.93; E 1.93; W 1.95; K 1.67; C 1.68; N 1.84; G 1.64; L 2.21
Q6: E 2.12; W 2.63; V 2.96; N 1.92; A 2.15; S 1.67; T 1.6; K 1.92; C 1.9; H 4.5; I 2.39; D 1.87; P 1.46; M 1.82; Y 2.04; R 1.5; G 1.61; F 3.64; L 1.83
R5: T 1.68; V 2.04; W 2.45; Y 2.13
T13: R 1.85; W 2.07; N 1.96; C 2.66; V 1.6; F 1.68; P 1.8; K 2; S 1.99; M 1.67; L 2.09; H 2.21; Q 2.37; E 1.69; Y 1.65; G 1.62; I 1.8; D 2.33; A 2.3
Q20: I 1.78; F 1.91; N 1.73; A 2.46; T 1.8; Y 1.66; D 1.88; M 1.45; C 2.16; H 2.09; S 2.28; W 2.77; P 2.06; K 1.84; R 2.37; V 1.75; E 2.03; L 2.12; G 2.01
P11: H 1.98; C 1.79; N 1.93; W 2.19; M 1.83; K 1.83; S 1.78; Y 2.13; Q 2.29; I 2.57; D 2.01; A 2.31; E 1.67; L 1.52; F 1.07; R 1.88; G 1.66; V 1.8; T 2.43
D10: I 2.14; C 1.49; P 1.72; E 1.7; K 1.83; W 1.77; Y 2.01; A 1.88; F 2.45; G 2.15; H 1.95; L 1.5; T 2.03; M 2.18; N 1.22; R 1.62; Q 2.46; V 1.42; S 2.36
N23: H 1.88; A 1.37; G 1.39; E 1.91; F 1.25; C 2.32; D 2.46; I 2.87
T18: Y 1.51; F 1.67; H 1.39; A 2.05; V 1.04; C 1.55; M 1.74; G 1.86; Q 1.73; S 1.9; L 1.58; R 1.68; N 2.15; D 3.38; I 1.61; E 2.07; P 2.18; W 2.4; K 1.34
L19: G 2.94; K 2.05; A 1.54; Y 2.34; E 1.73; I 2.05; D 2.49; V 2.03; F 1.68; C 1.63; N 1.94; T 2.2; S 2.03; H 1.59; M 1.91; P 1.87; R 1.44; W 2.61; Q 1.87
K21: N 2.27; D 1.88; V 1.6; M 1.54; A 2.02; R 1.82; Y 2.43; G 1.11; I 1.78; Q 1.9; E 2.86; F 2.14; C 2.53; P 2.04; T 1.54; H 2.33; S 1.81; L 1.32
Y7: E 2.5; W 3.02; Q 2.45; S 2.74; L 2.57; I 1.94; M 1.72; D 2.38; N 2.46; C 1.97; K 2.55; G 1.77; H 2.18; A 2.31; T 1.89; F 1.75; V 2.27; R 2.4; P 2.08
L17: Y 1.95; W 1.88; K 2.1; E 1.59; C 2.02; R 2.56; T 2.2; F 1.56; A 1.92; S 1.8; M 1.53; G 2.38; I 1.78; V 1.73; P 1.57; Q 2.19; D 1.91; N 1.6; H 2.17
K12: I 1.95; T 1.73; E 2.4; M 1.7; N 2.12; Q 2.04; F 2.27; C 1.86; R 2.44; W 3.25; P 2.26; H 2.21; G 1.47; A 1.87; V 1.55; L 1.91; S 1.57; D 1.53; Y 3.08

Source: the supplement of paper PMC10567573
